The supplement of paper PMC11246515
± gives the standard deviation of the averaged measurements.

Assay: total protein half-life in vivo (active degradation + dilution); higher = more stable protein
[1] = E. coli NCM3722 delta-clpP delta-lon delta-hslV, growth: N-lim chemostat, doubling time 6 h
[2] = E. coli NCM3722 delta-clpP, growth: N-lim chemostat, doubling time 6 h
[3] = E. coli NCM3722 delta-hslV, growth: N-lim chemostat, doubling time 6 h
[4] = E. coli NCM3722 delta-lon, growth: N-lim chemostat, doubling time 6 h
[5] = E. coli NCM3722 delta-smpB, growth: N-lim chemostat, doubling time 6 h
[6] = wild type E. coli NCM3722, growth: C-lim chemostat, doubling time 3 h
[7] = wild type E. coli NCM3722, growth: C-lim chemostat, doubling time 6 h
[8] = wild type E. coli NCM3722, growth: C-lim chemostat, doubling time 12 h
[9] = wild type E. coli NCM3722, growth: N-lim chemostat, doubling time 6 h
[10] = wild type E. coli NCM3722, growth: N-lim chemostat, doubling time 12 h
[11] = wild type E. coli NCM3722, growth: P-lim chemostat, doubling time 6 h
[12] = wild type E. coli NCM3722, growth: P-lim chemostat, doubling time 12 h

Row | Sequence | total protein half-life in vivo [1] [h] | total protein half-life in vivo [2] [h] | total protein half-life in vivo [3] [h] | total protein half-life in vivo [4] [h] | total protein half-life in vivo [5] [h] | total protein half-life in vivo [6] [h] | total protein half-life in vivo [7] [h] | total protein half-life in vivo [8] [h] | total protein half-life in vivo [9] [h] | total protein half-life in vivo [10] [h] | total protein half-life in vivo [11] [h] | total protein half-life in vivo [12] [h]
1 | MANRMILNETAWFGRGAVGALTDEVKRRGYQKALIVTDKTLVQCGVVAKVTDKMDAAGLAWAIYDGVVPNPTITVVKEGLGVFQNSGADYLIAIGGGSPQDTCKAIGIISNNPEFADVRSLEGLSPTNKPSVPILAIPTTAGTAAEVTINYVITDEEKRRKFVCVDPHDIPQVAFIDADMMDGMPPALKAATGVDALTHAIEGYITRGAWALTDALHIKAIEIIAGALRGSVAGDKDAGEEMALGQYVAGMGFSNVGLGLVHGMAHPLGAFYNTPHGVANAILLPHVMRYNADFTGEKYRDIARVMGVKVEGMSLEEARNAAVEAVFALNRDVGIPPHLRDVGVRKEDIPALAQAALDDVCTGGNPREATLEDIVELYHTAW [P0A9S1] | 4.47 ± 0.099 | 3.35 ± 0.51 | 3.392 ± 0.0085 | 4.76 ± 0.29 | 2.66 ± 0.051 | 3.02 ± 0.11 | 5.64 ± 0.23 | 10.6 ± 0.27 | 4.48 ± 1 | 4.94 ± 0.27 | 5.483 ± 0.014 | 10.2 ± 0.13
2 | MANWQSIDELQDIASDLPRFIHALDELSRRLGLNITPLTADHISLRCHQNATAERWRRGFEQCGELLSENMINGRPICLFKLHEPVQVAHWQFSIVELPWPGEKRYPHEGWEHIEIVLPGDPETLNARALALLSDEGLSLPGISVKTSSPKGEHERLPNPTLAVTDGKTTIKFHPWSIEEIVASEQSA | 5.34 ± 1.4 | 3.77 ± 0.15 | 2.73 ± 0.29 | 3.16 ± 0.24 | 3.04 ± 0.023 | 2.231 ± 0.0095 | 3.62 ± 1.4 | 5.25 ± 0.3 | 3.3 | 3.66 | 3.83 | 6.37 ± 1.2
3 | MAQFVYTMHRVGKVVPPKRHILKNISLSFFPGAKIGVLGLNGAGKSTLLRIMAGIDKDIEGEARPQPDIKIGYLPQEPQLNPEHTVRESIEEAVSEVVNALKRLDEVYALYADPDADFDKLAAEQGRLEEIIQAHDGHNLNVQLERAADALRLPDWDAKIANLSGGERRRVALCRLLLEKPDMLLLDEPTNHLDAESVAWLERFLHDFEGTVVAITHDRYFLDNVAGWILELDRGEGIPWEGNYSSWLEQKDQRLAQEASQEAARRKSIEKELEWVRQGTKGRQSKGKARLARFEELNSTEYQKRNETNELFIPPGPRLGDKVLEVSNLRKSYGDRLLIDDLSFSIPKGAIVGIIGPNGAGKSTLFRMISGQEQPDSGTITLGETVKLASVDQFRDSMDNSKTVWEEVSGGLDIMKIGNTEMPSRAYVGRFNFKGVDQGKRVGELSGGERGRLHLAKLLQVGGNMLLLDEPTNDLDIETLRALENALLEFPGCAMVISHDRWFLDRIATHILDYQDEGKVEFFEGNFTEYEEYKKRTLGADALEPKRIKYKRIAK [P0A9W3] | 4.99 ± 0.079 | 5.16 ± 1.3 | 4.696 ± 0.0076 | 4.99 ± 0.28 | 4.57 ± 0.13 | 3.142 ± 0.022 | 5.61 ± 0.25 | 10.3 ± 0.59 | 4.514 ± 0.025 | 7.31 ± 0.33 | 5.748 ± 0.023 | 11.6 ± 0.28
4 | MAQGTLYIVSAPSGAGKSSLIQALLKTQPLYDTQVSVSHTTRQPRPGEVHGEHYFFVNHDEFKEMISRDAFLEHAEVFGNYYGTSREAIEQVLATGVDVFLDIDWQGAQQIRQKMPHARSIFILPPSKIELDRRLRGRGQDSEEVIAKRMAQAVAEMSHYAEYDYLIVNDDFDTALTDLKTIIRAERLRMSRQKQRHDALISKLLAD | 4.92 ± 0.11 | 4.94 ± 0.094 | 4.492 ± 0.0085 | 4.85 ± 0.71 | 4.493 ± 0.03 | 2.78 ± 0.075 | 6.12 ± 1.5 | 8.87 ± 3.6 | 5.11 ± 0.12 | 8.324 ± 0.018 | 5.66 ± 0.11 | 11.8 ± 0.35
5 | MAQHTVYFPDAFLTQMREAMPSTLSFDDFLAACQRPLRRSIRVNTLKISVADFLQLTAPYGWTLTPIPWCEEGFWIERDNEDALPLGSTAEHLSGLFYIQEASSMLPVAALFADGNAPQRVMDVAAAPGSKTTQISARMNNEGAILANEFSASRVKVLHANISRCGISNVALTHFDGRVFGAAVPEMFDAILLDAPCSGEGVVRKDPDALKNWSPESNQEIAATQRELIDSAFHALRPGGTLVYSTCTLNQEENEAVCLWLKETYPDAVEFLPLGDLFPGANKALTEEGFLHVFPQIYDCEGFFVARLRKTQAIPALPAPKYKVGNFPFSPVKDREAGQIRQAATGVGLNWDENLRLWQRDKELWLFPVGIEALIGKVRFSRLGIKLAETHNKGYRWQHEAVIALASPDNMNAFELTPQEAEEWYRGRDVYPQAAPVADDVLVTFQHQPIGLAKRIGSRLKNSYPRELVRDGKLFTGNA | 4.91 ± 0.059 | 4.53 ± 0.36 | 4.4 ± 0.12 | 5.21 ± 0.62 | 4.38 ± 0.21 | 2.99 ± 0.3 | 5.79 ± 1.4 | 9.34 ± 2.6 | 4.63 ± 0.14 | 8.3 ± 0.63 | 4.78 ± 1.1 | 9.91 ± 0.92
6 | MAQRDYVRRSQPAPSRRKKSTSRKKQRNLPAVSPAMVAIAAAVLVTFIGGLYFITHHKKEESETLQSQKVTGNGLPPKPEERWRYIKELESRQPGVRAPTEPSAGGEVKTPEQLTPEQRQLLEQMQADMRQQPTQLVEVPWNEQTPEQRQQTLQRQRQAQQLAEQQRLAQQSRTTEQSWQQQTRTSQAAPVQAQPRQSKPASSQQPYQDLLQTPAHTTAQSKPQQAAPVARAADAPKPTAEKKDERRWMVQCGSFRGAEQAETVRAQLAFEGFDSKITTNNGWNRVVIGPVKGKENADSTLNRLKMAGHTNCIRLAAGG | 4.824 ± 0.04 | 6.54 ± 1.9 | 5.87 ± 0.74 | 5.94 ± 0.43 | 4.76 ± 0.2 | 3 ± 0.038 | 5.351 ± 0.053 | 9.17 ± 0.79 | 5.27 ± 0.25 | 10.2 ± 0.24 | 4.421 ± 0.02 | 9.11 ± 0.63
